Measurements reported in patent publication US20250340649A1 (RUTGERS THE STATE UNIVERSITY OF NEW JERSEY, published 2025).
Where two headings read alike, the source gives them in different places.

Key:
[1] = target: T1, CD16b on neutrophils (human, UniProt O75015 17-200); assay: flow cytometry, neutrophils (CD16b+)
T1 construct: whole, on cells; also called neutrophils (CD16b+)

[2] = target: T1, CD16b on neutrophils; assay: flow cytometry, neutrophils (CD16b+); value of the drawn table
[3] = target: T1, CD16b on neutrophils; assay: flow cytometry, neutrophils (CD16b+); value at the PE-H+ gate inside the histogram
[4] = target: T2, CD16a on NK92 (CD16+) cells (human, UniProt P08637 17-254); assay: flow cytometry, NK92 cells (CD16a+)
T2 construct: whole, on cells; also called NK92 cells (CD16a+); haNK92 cells (CD16a+)
T2 sequence (P08637 17-254 F176V): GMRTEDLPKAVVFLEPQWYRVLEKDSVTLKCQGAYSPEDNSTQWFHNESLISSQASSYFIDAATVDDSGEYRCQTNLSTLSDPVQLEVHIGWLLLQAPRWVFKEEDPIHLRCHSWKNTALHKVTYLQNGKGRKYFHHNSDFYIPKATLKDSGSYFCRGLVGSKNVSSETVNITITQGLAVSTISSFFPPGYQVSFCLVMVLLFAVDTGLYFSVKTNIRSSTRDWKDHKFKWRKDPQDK

[5] = target: HER2 on the surface of HER2+ cancer cells (BT474, SKOV-3) (human) (UniProt P04626); assay: flow cytometry on BT-474 cells (HER2+)
[6] = target: T1, CD16b on neutrophils; assay: flow cytometry, neutrophils (CD16b+); value at the PE-H- gate inside the histogram
[7] = target: HER2 on the surface of HER2+ cancer cells (BT474, SKOV-3) (human) (UniProt P04626); assay: flow cytometry on SKOV-3 cells (HER2+)
[8] = target: T2, CD16a on NK92 (CD16+) cells; assay: flow cytometry, fixed haNK92 (CD16+) cells, tenfold dilutions, anti-histag-FITC
Method: First, CD16a+NK92 was harvested and washed once using Dulbecco's phosphate-buffered saline (DPBS) supplemented with 2% FBS (2% DPBS-FBS). Next, all the cells were fixed using 3.7% paraformaldehyde for 20 min at RT, followed by washing twice. […] Following washing three times, the secondary antibody, anti-Histag antibody FITC labeled, was added. After washing, the samples were run on Cytoflex using FL1 channel.

[9] = target: T3, Biotinylated Human Fc gamma RIIIA/CD16a (F176) Protein, Avitag, His Tag (Acrobiosystems CDA-H82E8) (human, UniProt P08637 17-208, biotinylated (Avitag)); assay: BLI (Octet), biotinylated CD16a on streptavidin sensor, VHH 1.875-60 nM
T3 construct: also called biotinylated CD16a; CD16a antigen
T3 sequence (P08637 17-208 limits assumed): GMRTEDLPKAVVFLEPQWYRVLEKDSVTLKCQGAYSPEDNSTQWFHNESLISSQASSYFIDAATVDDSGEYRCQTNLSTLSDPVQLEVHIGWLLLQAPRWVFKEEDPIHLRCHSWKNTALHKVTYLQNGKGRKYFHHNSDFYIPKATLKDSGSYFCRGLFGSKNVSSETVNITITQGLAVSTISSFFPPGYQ

[10] = target: T4, biotinylated CD32b (UniProt P31994 46-217, biotinylated); assay: ELISA, biotinylated antigen on streptavidin plate
T4 construct: also called CD32b antigen
T4 sequence (looked up): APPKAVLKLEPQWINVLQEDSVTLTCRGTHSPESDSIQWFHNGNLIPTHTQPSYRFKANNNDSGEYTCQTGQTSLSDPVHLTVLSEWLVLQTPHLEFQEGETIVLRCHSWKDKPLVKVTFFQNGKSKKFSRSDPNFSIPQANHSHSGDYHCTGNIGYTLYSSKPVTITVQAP
Method: The purified VHHs were subjected to functional analysis using ELISA and flow cytometry. For ELISA, 50 μL of biotinylated CD16a, CD16b-NA1, CD16b-NA2, and CD32b were added to the streptavidin-coated plate and incubated for 45 min at RT. Following washing, the 100 μL of 100 nM purified VHHs were added and incubated at RT for 1 h. Next, 100 μL anti-HA tag HRP conjugated secondary antibody was added. Finally, the substrate was added for color development, and the plate was read using OD of 450 nm.
CD32b and skim milk were also used as antigen controls. 3G8 and eBioCB16, which are anti-CD16a/b mAbs were used as antibody controls. […] CD32b is a receptor that is expressed on B cells and responsible for inhibiting B cell activation. One of the disadvantages of mAb-based therapies is the binding of their Fc region to CD32b leading to the diminished activity of humoral immunity.

[11] = target: T5, Biotinylated Human Fc gamma RIIIB/CD16b (NA1) Protein, His, Avitag (Acrobiosystems CDB-H82E4) (human, UniProt O75015 17-200, biotinylated (Avitag)); assay: BLI (Octet), biotinylated CD16b-NA1 on streptavidin sensor, VHH 1.875-60 nM
T5 construct: NA1 allele; also called CD16b-NAI
T5 sequence (O75015 other isoform, or with tags, fused parts or gaps limits assumed): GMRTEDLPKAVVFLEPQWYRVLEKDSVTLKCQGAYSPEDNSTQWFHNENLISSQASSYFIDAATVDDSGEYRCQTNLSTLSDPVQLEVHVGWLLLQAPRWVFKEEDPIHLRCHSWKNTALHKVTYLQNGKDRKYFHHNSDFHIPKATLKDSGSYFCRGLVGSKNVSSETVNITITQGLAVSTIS
Method: (§1) An Octet® Streptavidin (SA) Biosensor was soaked for at least 10 min in DPBS supplemented with 0.1% Casein, biotinylated CD16a, CD16b-NA1, CD16b-NA2, and HER2 antigens were loaded onto the streptavidin (SA) biosensor until 1 nm shift was reached. Next, the sensor was dipped into the washing buffer (DPBS+0.05% Tween 20+0.1% Casein) for 2 min to reach the baseline. […] Then, in the dissociation step, sensors were dipped into the washing buffer for 5 min to acquire data (Table 5). The data were then analyzed using Octet Data Analysis HT 11.1 software. The sensorgrams were subtracted from the reference and fitted into 1:1 binding model for data analysis. Finally, the affinity and kinetics were analyzed using “Association and Dissociation”.

[12] = target: T3, Biotinylated Human Fc gamma RIIIA/CD16a …; assay: ELISA, biotinylated CD16a on streptavidin plate, tenfold dilutions 0-1000 nM, anti-cMyc-HRP
Method: For ELISA, 50 μL of biotinylated CD16a was added to the streptavidin-coated plate and incubated for 45 min at RT. […] Next, 100 μl anti-cMyc tag HRP conjugated secondary antibody (1:10,000 dilutions) was added. Finally, after washing, the substrate was added for color development, and the plate was read using OD of 450 nm.

[13] = target: T1, CD16b on neutrophils; assay: flow cytometry on neutrophils (CD16b+)
Method: For flow cytometry, haNK92 cells (CD16a+) and Neutrophils (CD16b⁺) were used. […] The human Neutrophil cells were purchased from HemaCare and cultured according to the manufacturer's protocol. First, both cell lines were harvested and washed once using DPBS supplemented with 2% FBS (2% DPBS-FBS). For each sample, 0.5×10⁶ cells were stained with antibody on ice for 60 min. In this experiment, 3G8 monoclonal antibody was used as a positive control. This antibody binds to both CD16a and CD16b. Following washing three times, the secondary antibody, anti-Histag antibody FITC labeled, was added. After washing, the samples were run on Cytoflex using FL2 channel.
In this experiment, NK92 cells (CD16a⁺), neutrophils (CD16b⁺), and B cells (CD32b⁺) were used as cell controls. 3G8 (anti-CD16a/b) and AT10 (anti-CD32a/b) mAbs were used as antibody controls.

[14] = target: T6, CD32b on B cells (UniProt P31994 43-310); assay: flow cytometry on B cells (CD32b+)
T6 construct: whole, on cells; also called B cells (CD32b+)
T6 sequence (looked up): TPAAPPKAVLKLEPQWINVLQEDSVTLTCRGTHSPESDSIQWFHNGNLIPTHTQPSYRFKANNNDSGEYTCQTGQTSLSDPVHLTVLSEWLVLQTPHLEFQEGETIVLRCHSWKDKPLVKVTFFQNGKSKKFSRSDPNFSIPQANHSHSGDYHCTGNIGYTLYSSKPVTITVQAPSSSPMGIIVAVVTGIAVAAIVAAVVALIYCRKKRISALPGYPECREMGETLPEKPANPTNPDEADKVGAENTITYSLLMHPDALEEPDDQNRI

[15] = target: T3, Biotinylated Human Fc gamma RIIIA/CD16a …; assay: BLI (Octet), biotinylated CD16a on streptavidin sensor, VHH 1.875-60 nM; remark: listed apart in the source
Method: as §1

T1 sequence (O75015 17-200): as the sequence (O75015 other isoform, or with tags, fused parts or gaps limits assumed) above, with R20S, D66N, V90I counted along it

CD16 Monoclonal Antibody (3G8), Functional Grade, eBioscience
MFI [1]: 18000
PE- [1]: 38.1%
PE+ [2]: 61.1%
PE+ [3]: 61.9%
FITC+ [4]: 82.2%
FITC- [4]: 17.8%
MFI [4]: 88200

Isotype (antibody)
FITC+ (%) [5]: 0.45%
FITC- (%) [5]: 99.6%
Mean (MFI) [5]: 935
MFI [1]: 867
PE+ [1]: 4.42%
PE- [2]: 90.6%
PE- [6]: 95.6%
FITC+ (%) [7]: 0.97%
FITC- (%) [7]: 99%
Mean (MFI) [7]: 915
FITC+ [4]: 0.71%
FITC- [4]: 99.3%
MFI [4]: 25000

B1: C1 anti-CD16a VHH (VHH)
VHH: QVQLQESGGGLVQAGGSLRLSCAASGRTFRLYRMGWFRQAPGKEREFVGSIKMIDGSTLYGDPVKGRFTISRDNTKFMAYLQMNSLKPEDTAVYYCASVSRVTGSYDSWGQGTQVTVSSYPYDVPDYAHHHHHHHH
notes: also called C1 clone; C1 VHH
EC50 (read off the curve) [8]: ~1 nM
Kd [9]: 1.73 nM
koff [9]: 0.000479 s⁻¹
kon [9]: 277000 M⁻¹ s⁻¹
binding result [10]: no binding (tested: 100 nM)
Kd [11]: 119 nM
koff [11]: 0.0255 s⁻¹
kon [11]: 213000 M⁻¹ s⁻¹
EC50 (read off the curve) [12]: ~0.3 nM
binding result [13]: no binding
binding result [14]: no binding

B2: E3 anti-CD16a VHH (VHH)
VHH: QVQLQESGGGLVQAGGSARLSCAASGRTFRLYRMGWFRQAPGKEREFVASIKMIDGSSLFGDPVKGRFTISRDNTKFMVYLQMNSLKPEDTAVYYCASVSRNTGSWDSWGQGTQVTVSSYPYDVPDYAHHHHHHHH
notes: also called E3 clone; E3 VHH
Kd [15]: 0.579 nM
koff [15]: 0.000294 s⁻¹
kon [15]: 505000 M⁻¹ s⁻¹
binding result [10]: no binding (tested: 100 nM)
Kd [11]: 31.7 nM
koff [11]: 0.0131 s⁻¹
kon [11]: 412000 M⁻¹ s⁻¹
binding result [13]: no binding
